Laboratory results from article doi:10.1101/2024.03.21.586151.

Biological target: CaM(C110)D with an IAEDANS probe coupled to position 110 (UniProt P0DP23)
Test: FRET or BRET

CKIIp with a C-terminal Gly-Cys extension labeled with DDPM (peptide)
rate of FRET change after EGTA, fast phase (release of Ca^2+ from the N-domain): 5.8 s⁻¹
